Reference: article doi:10.1101/2020.02.28.969287
Like-named read-outs stand apart in the source and are kept apart here.

Columns and labels:
[1] = biological target: potassium channel KcsA from Streptomyces lividans (pET-28a construct, N-terminal His-tag) (Streptomyces lividans) (UniProt P0A334); assay: mass photometry
[2] = biological target: potassium channel KcsA from Streptomyces lividans (pET-28a construct, N-terminal His-tag) (Streptomyces lividans) (UniProt P0A334); assay: mass photometry; remark: listed apart in the source
[3] = biological target: E. coli bo3 oxidase (E. coli) (UniProt P0ABJ3); assay: SEC-MALS
[4] = biological target: E. coli bo3 oxidase (E. coli) (UniProt P0ABJ3); assay: mass photometry
[5] = biological target: KcsA (pT7-KcsA construct, N-terminal His-tag) in native SMA nanodiscs (Streptomyces lividans) (UniProt P0A334); assay: mass photometry + other: lipid-to-protein ratio
[6] = biological target: E. coli outer membrane protein F (OmpF) (E. coli) (UniProt P02931); assay: native MS
[7] = biological target: E. coli outer membrane protein F (OmpF) (E. coli) (UniProt P02931); assay: mass photometry

potassium channel KcsA from Streptomyces lividans (pET-28a construct, N-terminal His-tag) (from UniProt P0A334 1-160) (natural protein)
stoichiometry N [1]: 4
stoichiometry N [2]: 4

E. coli bo3 oxidase (from UniProt P0ABJ3 1-204) (complex)
relative abundance of dimers [3]: 28%
relative abundance of monomers [3]: 72%
stoichiometry N [3]: 2
relative abundance of dimers [4]: 20%
relative abundance of monomers [4]: 80%
stoichiometry N [4]: 2

KcsA (pT7-KcsA construct, N-terminal His-tag) in native SMA nanodiscs (from UniProt P0A334 1-160) (natural protein)
stoichiometry N [5]: 8

E. coli outer membrane protein F (OmpF) (from UniProt P02931 23-362) (natural protein)
stoichiometry N [6]: 3
stoichiometry N [7]: 3
